Data set [1] concerns HeLa Kyoto. Nature of the data set: thermal stability score vs G1/S (z-score of summed log2 fold changes over temperatures); higher = more thermally stable than in G1/S.
In data set [2] the test system is HeLa Kyoto. Nature of the data set: melting temperature (median over replicates), in situ; higher = more thermally stable.
Data set [3] has as its system HeLa Kyoto. Nature of the data set: solubility in G1/S (NP-40 vs SDS abundance) (log2 ratio); higher = more soluble. Particulars: cell cycle stage: G1/S.
Data set [4] relates to HeLa Kyoto. Nature of the data set: solubility change mitosis vs G1/S (difference of NP-40 vs SDS log2 ratios) (log2 ratio difference); higher = more soluble in mitosis.
[5] abbreviates: cell cycle stage: early G1 (4.5 h after nocodazole release).

The text below walks through data of the supplement of paper PMC5998384.
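Wherever melting temperature (median over replicates), in situ is given: HeLa Kyoto cells synchronized by double thymidine or nocodazole block, proteins quantified by TMT10plex mass spectrometry, three independent biological replicates.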
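Wherever solubility change mitosis vs G1/S (difference of NP-40 vs SDS log2 ratios) is given: synchronized HeLa Kyoto cells (double thymidine block for G1/S, nocodazole release for mitosis), protein amounts in NP-40 versus SDS lysates quantified by mass spectrometry, three biological replicates.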
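Wherever solubility in G1/S (NP-40 vs SDS abundance) is given: HeLa Kyoto cells arrested at G1/S by double thymidine block, proteins quantified by TMT10plex mass spectrometry in mild NP-40 versus SDS extracts, three biological replicates.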
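Wherever thermal stability score vs G1/S (z-score of summed log2 fold changes over temperatures) is given: synchronized HeLa Kyoto cells, proteins quantified by TMT10plex mass spectrometry, three biological replicates, mitosis taken 0.5 h after nocodazole release, G1/S directly after double thymidine block.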

For “MSSILPFTPPVVKRLLGWKKSAGGSGGAGGGEQNGQEEKWCEKAVKSLVKKLKKTGRLDELEKAITTQNCNTKCVTIPSTCSEIWGLSTPNTIDQWDTTGLYSFSEQTRSLDGRLQVSHRKGLPHVIYCRLWRWPDLHSHHELKAIENCEYAFNLKKDEVCVNPYHYQRVETPVLPPVLVPRHTEILTELPPLDDYTHSIPENTNFPAGIEPQSNYIPETPPPGYISEDGETSDQQLNQSMDTGSPAELSPTTLSPVNHSLDLQPVTYSEPAFWCSIAYYELNQRVGETFHASQPSLTVDGFTDPSNSERFCLGLLSNVNRNATVEMTRRHIGRGVRLYYIGGEVFAECLSDSAIFVQSPNCNQRYGWHPATVCKIPPGCNLKIFNNQEFAALLAQSVNQGFEAVYQLTRMCTIRMSFVKGWGAEYRRQTVTSTPCWIELHLNGPLQWLDKVLTQMGSPSVRCSSMS [SMAD2]”, the results for the thermal stability score in the data set with HeLa Kyoto [1] (setting [5]) and with HeLa Kyoto [1] (cell cycle stage: mitosis) were 0.527 and 1.37, respectively. In addition, the values for the melting temperature with HeLa Kyoto [2] (cell cycle stage: G1/S) and in the data set on HeLa Kyoto [2] (cell cycle stage: mitosis) were 50.5 °C and 49.9 °C, respectively. Also, the “solubility in G1/S (log2)” value in the data set on HeLa Kyoto [3] was -0.0287. Also, the “solubility change mitosis (log2)” value with HeLa Kyoto [4] is -0.177.

For “MSSKKNRKRLNQSAENGSSLPSAASSCAEARAPSAGSDFAATSGTLTVTNLLEKVDDKIPKTFQNSLIHLGLNTMKSANICIGRPVLLTSLNGKQEVYTAWPMAGFPGGKVGLSEMAQKNVGVRPGDAIQVQPLVGAVLQAEEMDVALSDKDMEINEEELTGCILRKLDGKIVLPGNFLYCTFYGRPYKLQVLRVKGADGMILGGPQSDSDTDAQRMAFEQSSMETSSLELSLQLSQLDLEDTQIPTSRSTPYKPIDDRITNKASDVLLDVTQSPGDGSGLMLEEVTGLKCNFESAREGNEQLTEEERLLKFSIGAKCNTDTFYFISSTTRVNFTEIDKNSKEQDNQFKVTYDMIGGLSSQLKAIREIIELPLKQPELFKSYGIPAPRGVLLYGPPGTGKTMIARAVANEVGAYVSVINGPEIISKFYGETEAKLRQIFAEATLRHPSIIFIDELDALCPKREGAQNEVEKRVVASLLTLMDGIGSEVSEGQVLVLGATNRPHALDAALRRPGRFDKEIEIGVPNAQDRLDILQKLLRRVPHLLTEAELLQLANSAHGYVGADLKVLCNEAGLCALRRILKKQPNLPDVKVAGLVKITLKDFLQAMNDIRPSAMREIAIDVPNVSWSDIGGLESIKLKLEQAVEWPLKHPESFIRMGIQPPKGVLLYGPPGCSKTMIAKALANESGLNFLAIKGPELMNKYVGESERAVRETFRKARAVAPSIIFFDELDALAVERGSSLGAGNVADRVLAQLLTEMDGIEQLKDVTILAATNRPDRIDKALMRPGRIDRIIYVPLPDAATRREIFKLQFHSMPVSNEVDLDELILQTDAYSGAEIVAVCREAALLALEEDIQANLIMKRHFTQALSTVTPRIPESLRRFYEDYQEKSGLHTL [SPATA5]”, the results for the thermal stability score in the data set with HeLa Kyoto [1] (setting [5]) and with HeLa Kyoto [1] (cell cycle stage: mitosis) were 1.78 and -0.413, respectively. In addition, the results for the melting temperature in the data set on HeLa Kyoto [2] (cell cycle stage: G1/S) and in the data set with HeLa Kyoto [2] (cell cycle stage: mitosis) were 53 °C and 51.7 °C, respectively. Moreover, the “solubility in G1/S (log2)” value in the data set on HeLa Kyoto [3] is -0.296. Moreover, in the data set on HeLa Kyoto [4], the “solubility change mitosis (log2)” value was found to be 0.184.

As to “MSSNECFKCGRSGHWARECPTGGGRGRGMRSRGRGGFTSDRGFQFVSSSLPDICYRCGESGHLAKDCDLQEDACYNCGRGGHIAKDCKEPKREREQCCYNCGKPGHLARDCDHADEQKCYSCGEFGHIQKDCTKVKCYRCGETGHVAINCSKTSEVNCYRCGESGHLARECTIEATA [CNBP]”, the values for the thermal stability score in the data set on HeLa Kyoto [1] (setting [5]) and in the data set on HeLa Kyoto [1] (cell cycle stage: mitosis) were -1.16 and -2.48, respectively. Moreover, the figures for the melting temperature in the data set on HeLa Kyoto [2] (cell cycle stage: G1/S) and in the data set with HeLa Kyoto [2] (cell cycle stage: mitosis) were 57.6 °C and 58.8 °C, respectively. Moreover, the “solubility in G1/S (log2)” value in the data set on HeLa Kyoto [3] is -0.223. For the same sequence, the “solubility change mitosis (log2)” value in the data set with HeLa Kyoto [4] is -0.0883.

Regarding “MSSNSFPYNEQSGGGEATELGQEATSTISPSGAFGLFSSDLKKNEDLKQMLESNKDSAKLDAMKRIVGMIAKGKNASELFPAVVKNVASKNIEIKKLVYVYLVRYAEEQQDLALLSISTFQRALKDPNQLIRASALRVLSSIRVPIIVPIMMLAIKEASADLSPYVRKNAAHAIQKLYSLDPEQKEMLIEVIEKLLKDKSTLVAGSVVMAFEEVCPDRIDLIHKNYRKLCNLLVDVEEWGQVVIIHMLTRYARTQFVSPWKEGDELEDNGKNFYESDDDQKEKTDKKKKPYTMDPDHRLLIRNTKPLLQSRNAAVVMAVAQLYWHISPKSEAGIISKSLVRLLRSNREVQYIVLQNIATMSIQRKGMFEPYLKSFYVRSTDPTMIKTLKLEILTNLANEANISTLLREFQTYVKSQDKQFAAATIQTIGRCATNILEVTDTCLNGLVCLLSNRDEIVVAESVVVIKKLLQMQPAQHGEIIKHMAKLLDSITVPVARASILWLIGENCERVPKIAPDVLRKMAKSFTSEDDLVKLQILNLGAKLYLTNSKQTKLLTQYILNLGKYDQNYDIRDRTRFIRQLIVPNVKSGALSKYAKKIFLAQKPAPLLESPFKDRDHFQLGTLSHTLNIKATGYLELSNWPEVAPDPSVRNVEVIELAKEWTPAGKAKQENSAKKFYSESEEEEDSSDSSSDSESESGSESGEQGESGEEGDSNEDSSEDSSSEQDSESGRESGLENKRTAKRNSKAKGKSDSEDGEKENEKSKTSDSSNDESSSIEDSSSDSESESEPESESESRRVTKEKEKKTKQDRTPLTKDVSLLDLDDFNPVSTPVALPTPALSPSLMADLEGLHLSTSSSVISVSTPAFVPTKTHVLLHRMSGKGLAAHYFFPRQPCIFGDKMVSIQITLNNTTDRKIENIHIGEKKLPIGMKMHVFNPIDSLEPEGSITVSMGIDFCDSTQTASFQLCTKDDCFNVNIQPPVGELLLPVAMSEKDFKKEQGVLTGMNETSAVIIAAPQNFTPSVIFQKVVNVANVGAVPSGQDNIHRFAAKTVHSGSLMLVTVELKEGSTAQLIINTEKTVIGSVLLRELKPVLSQG [AP3B1]”, the thermal stability score with HeLa Kyoto [1] (setting [5]) is -0.704; with HeLa Kyoto [1] (cell cycle stage: mitosis), -0.939. Also, the melting temperature with HeLa Kyoto [2] (cell cycle stage: G1/S) was found to be 50.6 °C; in the data set with HeLa Kyoto [2] (cell cycle stage: mitosis) it was 50 °C. In addition, the “solubility in G1/S (log2)” value with HeLa Kyoto [3] was -0.0793. For the same sequence, the “solubility change mitosis (log2)” value in the data set with HeLa Kyoto [4] is -0.0973.

As to “MSSRKLSGPKGRRLSIHVVTWNVASAAPPLDLSDLLQLNNRNLNLDIYVIGLQELNSGIISLLSDAAFNDSWSSFLMDVLSPLSFIKVSHVRMQGILLLVFAKYQHLPYIQILSTKSTPTGLFGYWGNKGGVNICLKLYGYYVSIINCHLPPHISNNYQRLEHFDRILEMQNCEGRDIPNILDHDLIIWFGDMNFRIEDFGLHFVRESIKNRCYGGLWEKDQLSIAKKHDPLLREFQEGRLLFPPTYKFDRNSNDYDTSEKKRKPAWTDRILWRLKRQPCAGPDTPIPPASHFSLSLRGYSSHMTYGISDHKPVSGTFDLELKPLVSAPLIVLMPEDLWTVENDMMVSYSSTSDFPSSPWDWIGLYKVGLRDVNDYVSYAWVGDSKVSCSDNLNQVYIDISNIPTTEDEFLLCYYSNSLRSVVGISRPFQIPPGSLREDPLGEAQPQI [INPP5K]”, the results for the thermal stability score in the data set on HeLa Kyoto [1] (setting [5]) and with HeLa Kyoto [1] (cell cycle stage: mitosis) were -0.0552 and 0.149, respectively. This sequence returned a melting temperature in the data set on HeLa Kyoto [2] (cell cycle stage: mitosis) of 51.8 °C. Besides, the “solubility in G1/S (log2)” value with HeLa Kyoto [3] is -0.384. For the same sequence, the “solubility change mitosis (log2)” value with HeLa Kyoto [4] is -0.0846.
